In patent US20260193356A1 (BIOCYTOGEN PHARMACEUTICALS BEIJING, published 2026):

T1: His-tagged human B7-H2 protein (hB7-H2-his, ACROBiosystems Inc., Cat #: B72-H5221) (human, UniProt O75144 19-258)
T1 construct: Bought protein; not shown: His tag
T1 sequence (looked up): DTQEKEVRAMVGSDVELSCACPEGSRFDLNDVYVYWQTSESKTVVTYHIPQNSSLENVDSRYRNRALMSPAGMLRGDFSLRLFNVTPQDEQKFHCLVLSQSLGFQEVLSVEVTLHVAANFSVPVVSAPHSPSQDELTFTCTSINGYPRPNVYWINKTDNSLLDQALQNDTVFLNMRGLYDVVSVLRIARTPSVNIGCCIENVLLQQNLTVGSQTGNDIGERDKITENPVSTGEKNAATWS

T2: His-tagged human B7-H3 protein (hB7-H3-his, ACROBiosystems Inc., Cat #: B73-H52E2) (human, UniProt Q5ZPR3-2 29-245)
T2 construct: Bought protein; not shown: His tag
T2 sequence (looked up): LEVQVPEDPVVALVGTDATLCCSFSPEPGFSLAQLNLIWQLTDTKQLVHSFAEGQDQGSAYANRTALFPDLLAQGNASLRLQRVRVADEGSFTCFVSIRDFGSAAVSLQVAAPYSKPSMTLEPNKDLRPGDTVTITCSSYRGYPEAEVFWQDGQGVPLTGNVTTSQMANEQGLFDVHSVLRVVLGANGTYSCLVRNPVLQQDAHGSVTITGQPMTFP

T3: His-tagged human PDL2 protein (hPDL2-his, ACROBiosystems Inc., Cat #: PD2-H5220) (human, UniProt Q9BQ51 20-219)
T3 construct: Bought protein; not shown: His tag
T3 sequence (looked up): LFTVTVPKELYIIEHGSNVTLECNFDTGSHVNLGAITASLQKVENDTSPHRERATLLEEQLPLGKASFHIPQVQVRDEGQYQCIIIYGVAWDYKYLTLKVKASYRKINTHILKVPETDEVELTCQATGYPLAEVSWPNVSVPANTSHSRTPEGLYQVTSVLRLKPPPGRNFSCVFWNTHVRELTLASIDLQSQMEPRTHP

T4: His-tagged human B7-1 protein (hB7-1-his, Kactus, Cat #: B71-HM480) (human, UniProt P33681 35-242)
T4 construct: Bought protein; not shown: His tag
T4 sequence (looked up): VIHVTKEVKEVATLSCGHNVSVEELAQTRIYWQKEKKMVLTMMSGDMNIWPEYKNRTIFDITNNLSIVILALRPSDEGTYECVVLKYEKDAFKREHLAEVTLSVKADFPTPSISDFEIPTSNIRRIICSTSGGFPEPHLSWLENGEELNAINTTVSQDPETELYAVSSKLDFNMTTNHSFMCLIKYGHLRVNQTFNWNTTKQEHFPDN


Key:
[1] = target: T5, monkey (Macaca fascicularis) PDL1 (fasPDL1) expressed on CHO-S cells (CHO-S-fasPDL1) (monkey (Macaca fascicularis), UniProt Q9NZQ7 19-290 (human entry)); assay: flow cytometry on CHO-S-fasPDL1 cells; antibody 1 µg/mL
T5 sequence (Q9NZQ7 other isoform, or with tags, fused parts or gaps limits assumed): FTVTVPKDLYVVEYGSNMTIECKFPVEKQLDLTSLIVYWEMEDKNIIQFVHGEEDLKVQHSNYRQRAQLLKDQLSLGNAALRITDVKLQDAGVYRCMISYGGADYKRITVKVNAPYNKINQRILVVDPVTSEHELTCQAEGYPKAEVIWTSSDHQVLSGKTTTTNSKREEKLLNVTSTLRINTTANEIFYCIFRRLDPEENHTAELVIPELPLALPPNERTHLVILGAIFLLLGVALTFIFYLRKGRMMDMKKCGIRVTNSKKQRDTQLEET
Method: (§1) Then, after one wash with PBS, the cells were incubated with the secondary antibody anti-hIgG-Fc-Alex Flour 647 (RL1-H) (Jackson ImmunoResearch Laboratories, Inc., 109-606-170) at 4° C. for 15 minutes before flow cytometry analysis.

[2] = target: T1, His-tagged human B7-H2 protein …; assay: SPR Biacore 8K, antibody captured on Protein A chip, His-tagged antigen as analyte
Method: (§2) The His-tagged antigen protein at a concentration of 200 nM was then injected at 30 μL/min for 180 seconds. Dissociation was monitored for 400 seconds. The chip was regenerated after the last injection of each titration with Glycine (pH 2.0, 30 μL/min for 30 seconds).

[3] = target: T2, His-tagged human B7-H3 protein …; assay: as above
Method: as §2

[4] = target: T3, His-tagged human PDL2 protein …; assay: as above
Method: as §2

[5] = target: T4, His-tagged human B7-1 protein …; assay: as above
Method: as §2

[6] = target: T6, human PDL1 (hPDL1) expressed on CHO-S cells (CHO-S-hPDL1) (human, UniProt Q9NZQ7 19-290); assay: flow cytometry on CHO-S-hPDL1 cells; antibody 1 µg/mL
T6 sequence (Q9NZQ7 19-290 limits assumed): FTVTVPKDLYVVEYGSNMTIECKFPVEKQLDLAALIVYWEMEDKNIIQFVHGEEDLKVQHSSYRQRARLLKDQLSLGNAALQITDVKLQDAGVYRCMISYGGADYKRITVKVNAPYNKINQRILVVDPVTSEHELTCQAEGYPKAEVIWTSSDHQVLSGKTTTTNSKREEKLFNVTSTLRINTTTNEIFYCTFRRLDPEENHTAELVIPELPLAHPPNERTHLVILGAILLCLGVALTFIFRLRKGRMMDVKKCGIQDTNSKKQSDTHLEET
Method: as §1

[7] = target: T7, His-tagged human PDL1 protein (hPDL1-his, ACROBiosystems Inc., Cat #: PD1-H5229) (human, UniProt Q9NZQ7 19-238); assay: SPR Biacore 8K, antibody captured on Protein A chip, His-tagged antigen as analyte, 1:1 model
T7 construct: Bought protein; not shown: His tag
T7 sequence (Q9NZQ7 19-238 limits assumed): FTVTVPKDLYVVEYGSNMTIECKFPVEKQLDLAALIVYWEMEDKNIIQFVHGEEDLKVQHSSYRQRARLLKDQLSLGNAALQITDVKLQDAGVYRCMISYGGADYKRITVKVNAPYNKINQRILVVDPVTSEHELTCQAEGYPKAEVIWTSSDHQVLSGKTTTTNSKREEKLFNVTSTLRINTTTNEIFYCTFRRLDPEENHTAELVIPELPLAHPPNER
Method: (§3) Dissociation was monitored for 400 seconds. The chip was regenerated after the last injection of each titration with Glycine (pH 2.0, 30 μL/min for 30 seconds).

[8] = target: T8, His-tagged Macaca fascicularis PDL1 protein (fasPDL1-his, ACROBiosystems Inc., Cat #: PD1-C52H4) (Macaca fascicularis, UniProt Q9NZQ7 19-238 (human entry)); assay: as above
T8 construct: Bought protein; also called monkey PDL1; not shown: His tag
T8 sequence (Q9NZQ7 other isoform, or with tags, fused parts or gaps limits assumed): as the sequence (Q9NZQ7 19-238 limits assumed) above, with A33T, A34S, S62N, R68Q, Q82R, F173L, T185A, T192I, H215L counted along it
Method: as §3

[9] = target: T9, His-tagged mouse PDL1 protein (mPDL1-his, ACROBiosystems Inc., Cat #: PD1-M5220) (mouse, UniProt Q9EP73 19-238); assay: as above
T9 construct: Bought protein; not shown: His tag
T9 sequence (Q9EP73 19-238 limits assumed): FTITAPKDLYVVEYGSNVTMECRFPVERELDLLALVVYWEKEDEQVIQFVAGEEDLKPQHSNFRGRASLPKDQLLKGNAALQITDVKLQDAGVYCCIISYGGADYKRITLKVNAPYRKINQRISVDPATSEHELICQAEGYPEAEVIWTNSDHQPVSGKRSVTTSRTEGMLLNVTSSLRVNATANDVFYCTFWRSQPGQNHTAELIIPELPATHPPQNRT
Method: as §3

[10] = target: T10, mouse (Mus musculu) PDL1 (mPDL1) expressed on CHO-S cells (CHO-S-mPDL1) (mouse, UniProt Q9EP73 19-290); assay: flow cytometry on CHO-S-mPDL1 cells; antibody 0.1 µg/mL
T10 sequence (Q9EP73 19-290 limits assumed): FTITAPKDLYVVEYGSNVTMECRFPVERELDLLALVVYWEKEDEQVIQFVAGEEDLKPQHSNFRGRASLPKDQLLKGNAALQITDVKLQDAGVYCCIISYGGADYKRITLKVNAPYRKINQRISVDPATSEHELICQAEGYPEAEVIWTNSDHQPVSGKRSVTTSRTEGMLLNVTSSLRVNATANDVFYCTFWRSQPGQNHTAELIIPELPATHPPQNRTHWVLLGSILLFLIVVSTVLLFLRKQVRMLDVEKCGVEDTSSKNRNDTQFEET
Method: as §1

[11] = target: T6, human PDL1 (hPDL1) expressed on CHO-S …; assay: flow cytometry on CHO-S-hPDL1 cells; antibody 0.1 µg/mL
Method: as §1

[12] = target: T5, monkey (Macaca fascicularis) PDL1 …; assay: flow cytometry on CHO-S-fasPDL1 cells; antibody 0.1 µg/mL
Method: as §1

[13] = target: T10, mouse (Mus musculu) PDL1 (mPDL1) …; assay: flow cytometry on CHO-S-mPDL1 cells; antibody 1 µg/mL
Method: as §1

[14] = target: human PDL1 on helper cells CHO-aAPC-hPDL1 (Promega, Cat #: J1081) (human, UniProt Q9NZQ7 19-290); assay: cell-based or functional assay
Sequence of human PDL1 on helper cells CHO-aAPC-hPDL1 (Promega, Cat #: J1081) (Q9NZQ7 19-290 limits assumed): as the sequence (Q9NZQ7 19-290 limits assumed) above

Percentage of Positive Cells (%) [1] | binding result [2] | binding result [3] | binding result [4] | binding result [5] | Percentage of Positive Cells (%) [6] | Kd [7] | koff [7] | kon [7] | Kd [8] | koff [8] | kon [8] | Kd [9] | koff [9] | kon [9] | Percentage of Positive Cells (%) [10] | Percentage of Positive Cells (%) [11] | Percentage of Positive Cells (%) [12] | Percentage of Positive Cells (%) [13] | IC50 (µg/mL), Blockade of the binding of PDL1 and PD-1 (luciferase, CHO-aAPC-hPDL1 + Jurkat-Luc-hPD1 cells) [14] | Binder
79.8% | no binding (tested: 200 nM) | no binding (tested: 200 nM) | no binding (tested: 200 nM) | no binding (tested: 200 nM) | 89.3% | 1.16 nM | 0.000184 s⁻¹ | 159000 M⁻¹ s⁻¹ | 0.672 nM | 0.000146 s⁻¹ | 217000 M⁻¹ s⁻¹ | 1.28 nM | 0.000168 s⁻¹ | 131000 M⁻¹ s⁻¹ | 70.6% | 69% | 65.9% | 87.3% | 1.13 µg/mL | B20B02-N297A (antibody, human IgG1, V domains shown) VH: QVQLQQSGGGVVQPGRSLRLSCAASGFTFSTYGMHWVRQAPGKGLEWVAALSFDGGNIYYGDSVKGRFTISRDNSKNTLYLQMNSLRAEDTALYYCAKARLPYSYDAVDYWGQGTLVTVSS VL: EIVMTQSPATLSVSPGERATLSCRASQSVSSNLAWYQQKPGQAPRLLIYDTSTRAIGIPARFSGSGSGTEFTLTISSLQSEDFAIYYCHQYNFWPPITLGQGTRLEIK
70.2% | no binding (tested: 200 nM) | no binding (tested: 200 nM) | no binding (tested: 200 nM) | no binding (tested: 200 nM) | 83.2% | 8.65 nM | 0.00167 s⁻¹ | 193000 M⁻¹ s⁻¹ | 5.77 nM | 0.00156 s⁻¹ | 271000 M⁻¹ s⁻¹ | 8.04 nM | 0.00187 s⁻¹ | 232000 M⁻¹ s⁻¹ | 65.2% | 65.8% | 65% | 75.2% | 1.14 µg/mL | B21A06-N297A (antibody, human IgG1, V domains shown) VH: QVQLQESGGDVVQPGRSLRLSCAASGFTFNNYGMHWVRQAPSKGLEWVAFIWYDGSNKYYGDSVKGRFTISRDNSKNTLYLQMNSLRAEDTALYYCARGDNWNSDAFDIWGPGTMVTVSS VL: EIVMTQSPLSLPVTLGQPASISCRSSQSLVYTNGNTYLNWFQQRPGQSPRRLIYKVSSRDSGVPDRFSGSGSGTDFTLKISRVAAEDVGLYYCMQGTHWPLTFGGGTKVEIK
72% | no binding (tested: 200 nM) | no binding (tested: 200 nM) | no binding (tested: 200 nM) | no binding (tested: 200 nM) | 83.1% | 4.6 nM | 0.000721 s⁻¹ | 157000 M⁻¹ s⁻¹ | 2.95 nM | 0.000612 s⁻¹ | 207000 M⁻¹ s⁻¹ | 41.5 nM | 0.00955 s⁻¹ | 230000 M⁻¹ s⁻¹ | 67.8% | 69.9% | 64.2% | 79% | 0.789 µg/mL | B20A09-N297A (antibody, V domains shown) VH: QVQLQQSGPGLVKPSQTLSLTCAISRDGVSNISGAWNWIRQSPSRGLEWLGRTYYRAMWYKDYALSVKSRITINPDTSKNQFSLQLNSVTPEDTAVYYCAREEYSRGWGAFDIWGQGTMVTVSS VL: not shown
74.4% | no binding (tested: 200 nM) | no binding (tested: 200 nM) | no binding (tested: 200 nM) | no binding (tested: 200 nM) | 87.1% | 1.29 nM | 0.000411 s⁻¹ | 318000 M⁻¹ s⁻¹ | 0.765 nM | 0.000331 s⁻¹ | 432000 M⁻¹ s⁻¹ | 17.6 nM | 0.00152 s⁻¹ | 86200 M⁻¹ s⁻¹ | 66.1% | 72.2% | 66.9% | 77.1% | 0.745 µg/mL | B22E02-N297A (antibody, human IgG1, V domains shown, Human IgG1 with N297A (EU numbering) in the Fc) VH: QVQLVQSGGGLVQPGRSLRLSCRASGFTFDGYSMNWVRQAPGKGLEWVGFIRSKGYGGTSESAASVKGRFTISRDDSKSIAYLQMNSLKTEDTAVYYCTRTRNWNDEGYFDYWGLGTLVTVSS VL: DIQMTQSPSSLSASVGDRVTITCQASQDINKYLNWYQQKPGKAPKLLIYDASNSETGVPSRFSGSGSGTDFTFTISSLQPEDISTYYCQQYDILPITFGQGTRLEIK
